Results: article PMC5415106

Experiments:
[1] = molecular target: GST-Dpb11-wild-type (budding yeast) (UniProt P47027); assay: pull-down; GST-Dpb11 pull-down of CDK-phosphorylated RPA with single-stranded DNA substituted for bubble-shaped DNA; data not shown
[2] = molecular target: GST-Dpb11-m1,2,3,5,ΔC (budding yeast) (UniProt P47027); assay: pull-down; as the GST pull-down without DNA, but in the presence of 10 pmol bubble-shaped DNA; 10 pmol GST-Dpb11, 32P-labelled RPA; 25°C 1 h, glutathione Sepharose
[3] = molecular target: GST-Dpb11-wild-type (budding yeast) (UniProt P47027); assay: as above
[4] = molecular target: GST-Dpb11-m1,2,3,5,ΔC (budding yeast) (UniProt P47027); assay: pull-down; 10 pmol GST-tagged Dpb11 with 32P-labelled protein, no DNA; GST-binding buffer (40 mM Tris-HCl pH 7.5, 100 mM NaCl, 0.1 mM EDTA, 10% glycerol, 0.1% Triton X-100, 1 mM DTT, 0.1 mg/ml BSA), 25°C 1 h; glutathione Sepharose, two washes; SDS-PAGE and phosphorimaging
[5] = molecular target: GST-Dpb11-wild-type (budding yeast) (UniProt P47027); assay: as above
[6] = molecular target: Mcm2-7 complex with a PKA tag at the N-terminus of Mcm2 [modified: 32P-phosphate on the PKA tag; 32P-phosphate on the PKA tag] [budding yeast]; assay: GST pull-down, phosphorimaging; details: 10 pmoles GST-Dpb11, read off a plot

GST-Dpb11-wild-type (budding yeast), sequence (P47027 whole entry): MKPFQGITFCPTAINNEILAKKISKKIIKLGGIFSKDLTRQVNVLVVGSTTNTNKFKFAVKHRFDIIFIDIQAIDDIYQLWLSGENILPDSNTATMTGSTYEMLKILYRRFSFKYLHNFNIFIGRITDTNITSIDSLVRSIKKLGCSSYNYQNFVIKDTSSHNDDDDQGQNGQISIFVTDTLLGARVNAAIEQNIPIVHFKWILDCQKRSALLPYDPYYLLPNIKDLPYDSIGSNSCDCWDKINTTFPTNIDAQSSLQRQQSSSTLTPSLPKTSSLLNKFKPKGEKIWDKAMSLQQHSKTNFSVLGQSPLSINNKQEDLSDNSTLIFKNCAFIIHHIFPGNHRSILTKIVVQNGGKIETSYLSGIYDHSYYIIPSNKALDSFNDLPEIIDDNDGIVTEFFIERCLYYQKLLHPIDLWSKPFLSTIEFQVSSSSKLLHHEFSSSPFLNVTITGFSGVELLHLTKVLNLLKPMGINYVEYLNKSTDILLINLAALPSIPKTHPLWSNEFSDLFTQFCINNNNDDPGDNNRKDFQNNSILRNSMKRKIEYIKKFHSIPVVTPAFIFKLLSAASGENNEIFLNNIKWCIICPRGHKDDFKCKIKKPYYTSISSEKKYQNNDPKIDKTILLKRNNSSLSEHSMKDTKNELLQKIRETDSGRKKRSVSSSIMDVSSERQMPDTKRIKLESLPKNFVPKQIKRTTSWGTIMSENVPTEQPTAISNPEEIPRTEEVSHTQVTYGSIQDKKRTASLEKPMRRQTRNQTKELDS
GST-Dpb11-m1,2,3,5,ΔC (budding yeast), sequence (P47027 1-615 K463E/K469E/R538E/K549E): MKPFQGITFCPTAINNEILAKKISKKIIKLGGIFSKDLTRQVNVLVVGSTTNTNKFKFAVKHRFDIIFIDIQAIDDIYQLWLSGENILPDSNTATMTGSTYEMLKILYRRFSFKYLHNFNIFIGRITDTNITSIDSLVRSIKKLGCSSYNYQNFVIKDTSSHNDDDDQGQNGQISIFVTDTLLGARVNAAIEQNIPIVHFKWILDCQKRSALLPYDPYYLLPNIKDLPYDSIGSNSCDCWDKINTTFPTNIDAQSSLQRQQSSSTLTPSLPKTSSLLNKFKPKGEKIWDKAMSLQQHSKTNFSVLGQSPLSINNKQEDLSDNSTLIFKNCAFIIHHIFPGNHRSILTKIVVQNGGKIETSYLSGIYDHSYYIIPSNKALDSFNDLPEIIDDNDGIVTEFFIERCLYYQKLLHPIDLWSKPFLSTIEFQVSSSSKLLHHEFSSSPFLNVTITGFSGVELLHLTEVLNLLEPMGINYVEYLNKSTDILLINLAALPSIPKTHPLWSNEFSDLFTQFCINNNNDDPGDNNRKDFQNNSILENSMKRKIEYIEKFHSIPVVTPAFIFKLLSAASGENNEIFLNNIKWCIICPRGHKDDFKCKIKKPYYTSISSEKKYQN

percent pulled down [1]	percent pulled down [2]	percent pulled down [3]	percent pulled down [4]	percent pulled down [5]	response ([6]; 1 pmole Mcm2-7 input, parent: 0.26)	response ([6]; 3 pmoles Mcm2-7 input, parent: 0.55)	response ([6]; 10 pmoles Mcm2-7 input, parent: 1.3)	Substance
50%	15%	50%	15%	15%				CDK-phosphorylated RPA (PKA-tagged on Rfa1) (from UniProt P22336 1-621) (complex)
					0.25 pmol	0.55 pmol	1.3 pmol	GST-Dpb11-wild-type mutant K463E; K469E; R538E; K549E [budding yeast] / Mcm2-7 complex with a PKA tag at the N-terminus of Mcm2 [modified: 32P-phosphate on the PKA tag; 32P-phosphate on the PKA tag] [budding yeast] chain 1 K463E, chain 1 K469E, chain 1 R538E, chain 1 K549E
		15%		15%				PKA-RPA (not phosphorylated by CDK) (from UniProt P22336 1-621) (complex)
